Test results published in patent US20260266825A1.

Target: PRO-C17 monoclonal antibody
Assay: competitive ELISA; standard peptide competes with plate-bound biotinylated … for the HRP-labelled mAb

- IC50: 2.1 ng/mL
- Mean IC25: 0.8 ng/mL
- Mean IC75: 5.5 ng/mL
B1: 30 amino acid standard peptide (…) (peptide)
peptide: QGMAPAAGADLDKIGLHSDSQEELWMFVRK
